B1: vSIRPα labeled with Cy5.5 (receptor)
chain: EEELQIIQPDKSVLVAAGETATLRCTITSLFPVGPIQWFRGAGPGRVLIYNQRQGPFPRVTTVSDTTKRNNMDFSIRIGNITPADAGTYYCIKFRKGSPDDVEFKSGAGTELSVRAKP
modifications: Cy5.5 label (site not stated)
notes: also called Cy5.5-labeled vSIRPα
B2: mouse CD47 on the surface of mouse red blood cells and CT26.CL25 cells (receptor, UniProt Q61735 19-303, looked up)
chain: QLLFSNVNSIEFTSCNETVVIPCIVRNVEAQSTEEMFVKWKLNKSYIFIYDGNKNSTTTDQNFTSAKISVSDLINGIASLKMDKRDAMVGNYTCEVTELSREGKTVIELKNRTVSWFSPNEKILIVIFPILAILLFWGKFGILTLKYKSSHTNKRIILLLVAGLVLTVIVVVGAILLIPGEKPVKNASGLGLIVISTGILILLQYNVFMTAFGMTSFTIAILITQVLGYVLALVGLCLCIMACEPVHGPLLISGLGIIALAELLGLVYMKFVASNQRTIQPPRNR
notes: whole, on cells; also called CD47 present on the surface of the CT26.CL25 cells

Columns and labels:
[1] = molecular target: B2; test: flow cytometry of CT26.CL25 cells after incubation with mouse RBC loaded with 200 pmol labeled vSIRPα
Method: (§1) Each cell line, grown independently in a cell culture dish, was detached from the dish with trypsin-EDTA. The cells from each dish were then washed with DPBS, counted, and diluted to 10⁵ cells/100 μl PBS. 4 μl of the FAM-vSIRPα-siRNA/RBC resuspension (totaling 10³ RBC and 100 pmol of the vSIRPα-siRNA) was mixed, independently, with each 100 μl dilution of CT26.CL25 cells and CaCO2 cells. Each mixture was incubated for 30 minutes at room temperature (20-25° C.).
(§2) vSIRPα labeled with Cy5.5 was tested for its ability to be transferred from RBC to CD47 present on the surface of CT26.CL25 cells. Experiments were carried out as in Example 2, except that 200 pmol of the labeled vSIRPα, rather than 500 pmol of conjugate, was incubated with the RBC.

[2] = molecular target: T1, Murine TSP-1 (7859-TH, R&D Systems) labeled with Cy5.5 (murine, UniProt P35441 19-1170, Cy5.5 label (site not stated)); test: flow cytometry of CT26.CL25 cells after incubation with mouse RBC loaded with 5 µg labeled murine TSP-1
T1 construct: also called Cy5.5-labeled murine thrombospondin-1; Cy5.5 labeled TSP-1
T1 sequence (P35441 19-1170 limits assumed): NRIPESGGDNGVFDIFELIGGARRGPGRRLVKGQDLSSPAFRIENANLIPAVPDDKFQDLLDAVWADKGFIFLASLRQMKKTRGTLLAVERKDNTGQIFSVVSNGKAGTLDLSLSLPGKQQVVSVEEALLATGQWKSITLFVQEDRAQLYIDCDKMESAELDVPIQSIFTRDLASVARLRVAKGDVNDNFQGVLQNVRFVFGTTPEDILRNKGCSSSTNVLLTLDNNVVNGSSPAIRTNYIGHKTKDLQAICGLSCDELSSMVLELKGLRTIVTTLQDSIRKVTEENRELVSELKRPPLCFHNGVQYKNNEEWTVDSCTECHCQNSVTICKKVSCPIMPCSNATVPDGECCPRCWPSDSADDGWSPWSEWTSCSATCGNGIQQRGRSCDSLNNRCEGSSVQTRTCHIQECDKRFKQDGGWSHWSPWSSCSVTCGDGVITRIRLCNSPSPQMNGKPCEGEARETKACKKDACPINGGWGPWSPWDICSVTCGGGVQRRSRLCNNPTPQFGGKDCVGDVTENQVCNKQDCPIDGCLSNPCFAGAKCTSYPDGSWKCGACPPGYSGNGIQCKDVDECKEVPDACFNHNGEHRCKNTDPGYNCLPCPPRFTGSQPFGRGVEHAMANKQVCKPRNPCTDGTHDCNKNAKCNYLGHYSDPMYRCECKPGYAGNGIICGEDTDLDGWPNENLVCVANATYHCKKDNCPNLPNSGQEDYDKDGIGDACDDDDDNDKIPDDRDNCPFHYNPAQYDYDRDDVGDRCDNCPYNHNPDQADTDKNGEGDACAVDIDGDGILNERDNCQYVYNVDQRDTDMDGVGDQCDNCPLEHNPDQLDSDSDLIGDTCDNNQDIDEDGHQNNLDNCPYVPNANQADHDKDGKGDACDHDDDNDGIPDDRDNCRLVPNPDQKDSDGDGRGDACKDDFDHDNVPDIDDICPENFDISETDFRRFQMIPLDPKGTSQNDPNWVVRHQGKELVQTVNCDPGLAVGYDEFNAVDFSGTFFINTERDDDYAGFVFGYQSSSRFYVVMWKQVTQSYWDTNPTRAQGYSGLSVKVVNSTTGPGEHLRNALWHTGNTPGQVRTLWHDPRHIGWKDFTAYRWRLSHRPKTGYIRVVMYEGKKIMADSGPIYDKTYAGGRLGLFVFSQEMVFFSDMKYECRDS
Method: as §1
as §2, with “Murine TSP-1 (7859-TH, R&D Systems) labeled” for “vSIRPα labeled”, “that 5 μg” for “that 200 pmol”, “of Cy5.5” for “of the”, “labeled TSP-1,” for “labeled vSIRPα,”

binding result [1] | binding result [2] | Binder
binds |  | B1
 | binds | B2

Source: patent publication US20250122508A1 (K2B THERAPEUTICS, published 2025)
